Experimental data as given in patent publication US7667100B2, “Nucleic acid compositions conferring herbicide resistance” (Dow AgroSciences LLC, priority 2002, dated 2010).

B1: 130213: Poppy cDNA clone; auxin tolerance hit sequence (nucleic acid)
DNA: TTAATTAAGTCGACGAATTCATATGAAGAAATGGTTGAATTTATGGAAAAAGTAACAACAAATGTTGAATCAGAGGAACTTTCAGTTGAAGAGAGAAATTTATTGTCAGTTGCTTACAAAAATGTGATTGGTGCACGCAGAGCATCATGGAGAATTATTTCATCAATTGAACAGAAAGAAGAAAGCCGTGGTAACGAAGAGAATGTATTGACCATTCGTGATTATAGATCTAAGATTGAAACTGAACTTTCAGGCATCTGTGATGGGATTTTGAAGTTGCTTGATACTAGATTGATTCCATCTGCATCTTCTGGTGATTCTAAAGTGTTTTATTTGAAAATGAAAGGTGATTATCATCGTTATTTGGCTGAGTTTAAAACTGGTACCGAAAGGAAAGAAGCTGCTGAAAGTACCCTTTCTGCTTATAAATCTGCTCAGGATATCGCAACTGCTGAACTTGCACCCACTCACCCAATCAGGCTGGGACTTGCTCTTAACTTTCTCCGTCTTTTACTACGAGATCTTGAATTCTCCTGCCGTGCTTGTAATCTCGCCAAACAGGCATTTGATGAGGCTATCGCGGAGCTGGATACCCTTGGTGAAGAATCATACAAAGACAGCACTCTAATCATGCAGCTCCTTCGTGACAATCTTACTCTGTGGACCTCCGACATGCAGGATGATGGTGCAGATGAAATTAAAGAAGCATCCAAGCCTGAAGATGAACATTAATGATAGTTTGTCTGCCACATTTAGGATCTTACCTCCTCTCAGTTTGTTTTATTAAAAGGAGAAGGTGCTTTCTTGGTACACAACTCCTCCAAGTCTACTATTAATTATTAAGGAGTTTAGGGTGGGTACTGTTAGTTTGTCATTCTTCTTATCCTTTGTGCTCGTCTTTTCCTATCTTAATTCTTCTCTTAAAAGAGTTTGAAGTTATATGTTTATCTGAATCTGTGTGGGAACTCCGTTTTATCTAAATTATCTTTTAAGATGACGATAAAAAAAAAAAAAAAAAAA
modifications: Poppy
B2: 130294: Poppy cDNA clone; auxin tolerance hit sequence (nucleic acid)
DNA: TTAATTAAGTCGACGAATTCACATCTAAAGTCAACAACAAGAGCTTCTCTCTTCTCCTCGTCTCTGTTCTCCTCTCTTTTGCAATCCTCTCTCAATCTGCTGATGATTGTGTATACACAGTATACACAAGAACAGGATCAATCATCAAAGGAGGAACGGATTCAAAAATCTCACTAAGATTATACAGCAAATACGGTAAGTACATCGAGATCCCAAATCTTGAATCATGGGGTGGATTAATGGGTCCTGGTTACGATTATTTCGAAAGAGGTAATCTTGATATCTTCAGCGGAAGAGGTTATTGTCTGGGTTCACCGGTTTGTGCCATGAATCTGACTTCCGATGGTACTGGTTCCGGTCACGGATGGTATGTGAATTATGTTGAAGTTACTACTACCGGTGCACATATTAATTGTGGTCAACAGAATTTTGAAGTGGAAGATTGGCTTGCTCTTGATAGATCTCCTTATAGTCTTACCGCTATCAAGAATAATTGTAATCAGAAATTATCTGATCATGATTCTCATTCTGCTGATCAGTCTATGTAAAATTTGATCTCTTGTTTGATTCGGTGGTGGTCTAGTATGAGTGATCGGACGGTCGTCATTGTGTGTTGTAATGTTGAAATTATTTTCTTGAATAAAATGATTGAGTGAGTAGTGTTTGATTTTGCTTGGCCATCTTAGACATGATGGTGAGACTGTTTCTCGATTCGATGCAATTTTTTGGTTTTCTTGGTTGCAATCAATTCACGTTTGGTGAAAAAAAAAAAAAAAAAAAAAAAAAAAAAAAAAAAAAAAAAAAA
modifications: Poppy

Columns and labels:
[1] = tested on: Nicotiana benthamiana; assay: Evaluation of auxin tolerance in greenhouse plants inoculated with clone transcript and sprayed with herbicide; type: in vivo; conditions: for reproducibility of auxin tolerance from Trial #1 to Trial #2: greenhouse, 30% or more of test population tolerant by 14 dat
Procedure: All primary hit sequences were evaluated for tolerance in larger plants, maintained under greenhouse conditions as described below.
Plant Growth and Maintenance. Nb seeds were sown in 6.5 cm pots filled with Redi-earth medium (The Scotts Company, Marysville, Ohio) pre-wetted by injection of Hoagland's fertilizer solution [all from the Scotts Company: 147 kg Peters Excel 15-15-15 Cal-Mag, 68 kg Peters Excel 15-0-0 Cal-Lite (15% Ca), and 45 kg Peters Excel 10-0-0 MagNitrate (10% Mg) in hot tap water to 596 L total volume] into irrigation water at a ratio of 200:1, using an injection system (H. E. Anderson, Muskogee Okla,). Seededpots were placed in the greenhouse for 1 day, transferred to a 27° C. germination chamber (Carolina Greenhouses, Kinston, N.C.) for 2 days, and then returned to the greenhouse. Shade curtains (33% transmittance) were used in the greenhouse to reduce solar intensity. To ensure 16 hour day length and supplement solar radiation on overcast days, artificial lighting consisting of a 1:1 mixture of metal halide and high pressure Sylvania sodium lamps was used, delivering approximately 220 μmol/m^2/s. Evaporative cooling and steam heat were used to maintain a daytime set point of 27° C. and a nighttime temperature of 22° C. At approximately 7 days post sowing (dps), seedlings were thinned to one seedling per pot and at 17 to 21 dps, the pots were spaced farther apart to accommodate plant growth. Plants were watered with Hoagland's solution as required. Following inoculation, waste irrigation water was collected and treated with 0.5% sodium hypochlorite for 10 minutes to neutralize any viral contamination before discharging into the municipal sewer.
Plant Inoculation. For each clone, 50 test plants as well as 10 GFP and bar (Thompson et al., EMBO J. 6:2519 [19870]) negative control plants were inoculated as follows: 2.0 mL of inoculum per clone were prepared by combining equal volumes of NCAP transcript and FES buffer [0.1 M glycine, 0.06 M K2HPO4, 1% sodium pyrophosphate, 1% diatomaceous earth (Sigma Chemical Company, St. Louis, Mo.), and either 1% silicon carbide (Aldrich Chemical Company, Milwaukee, Wis.), or 1% Bentonite (Sigma Chemical Company, St. Louis, Mo.)]. The inoculum was applied to each plant at 17 days post sowing by pipetting onto the upper surface of leaves 3 and 4 (˜20 μL per leaf). The inoculum was then spread across each leaf surface using a 3″ cotton tipped applicator (Calapro Swab, Fisher Scientific, Pittsburgh, Pa.) and a gloved finger to support the leaf. Following inoculation the plants were misted with deionized water.
Infection Scoring. At 8 days post inoculation (dpi), the plants were visually examined and a numerical score was assigned to each plant to indicate the extent of viral infection symptoms: 0=no infection, 1=possible infection, 2=infection symptoms limited to leaves <50-75% fully expanded, 3=typical systemic infection, 4=atypically severe infection, often accompanied by moderate to severe wilting and/or necrosis. Plants receiving an infection rating of 0, 1, or 4 were discarded.
Herbicide spraying. At 9 dpi, the well infected plants (infection score of 3, sometimes 2) were divided into 3 treatment groups. Group 1, to be sprayed with solvent only, contained 4 plants per test clone (2 plants per negative control) and Groups 2 and 3, to be treated with 13 or 40 g ae/ha, respectively, each consisted of 12 test plants per clone and 2 plants per negative control. […]

[2] = tested on: Nicotiana benthamiana; assay: Cross-resistance testing against six auxin compounds (greenhouse); type: in vivo; conditions: for tolerance to picloram (Compound #5): 10 g ae/ha and 1/2x; for tolerance to positive control 4-amino-3,6-dichloropyridine-2-carboxylic acid (Compound #6): 10 g ae/ha and 1/2x (5 g ae/ha); for tolerance to dicamba (Compound #3): 64 g ae/ha and 1/2x; for tolerance to quinclorac (Compound #1): 200 g ae/ha and 1/2x; for extent of cross-resistance to the six auxin compounds: two trials, two doses per auxin, thresholds 25% or 35% injury or less
Excerpt: Six compounds, representing five classes of auxin chemistry, were selected for testing the extent of auxinic tolerance of five hit sequences (129965 (SEQ ID NO:10), 130213 (SEQ ID NO: 14), 130294 (SEQ ID NO:360), 130994 (SEQ ID NO:361), and 129870 (SEQ ID NO:359)). The compounds included the following: • 1) quinclorac (BASF Corp., Research Triangle, N.C.) • 2) (2,4-dichlorophenoxy) acetic acid (Dow AgroSciences, Indianapolis, Ind.) • 3) dicamba (Monsanto, St. Louis, Mo.) • 4) benazolin (AgrEvo USA Company, Wilmington, Del.) • 5) picloram (Dow AgroSciences, Indianapolis, Ind.) • 6) 4-amino-3,6-dichloropyridine-2-carboxylic acid (Dow AgroSciences, Indianapolis, Ind.) Compound #6 served as a positive control, as these five sequences were identified for their herbicide tolerant function using this auxin (see Example 9). Compound #1 represents the quinoline carboxylic acid chemical family, #2 is in the phenoxy carboxylic acid class, #3 is benzoic acid chemistry, #4 is unique to any currently defined class, and #5 is in the same family as the positive control, pyridine carboxylic acids.
The protocol was essentially the same as that described in Example 9 for greenhouse evaluations. However, an individual experiment consisted of 200 test plants plus 35 GFP and 35 bar negative control plants inoculated per clone. […] Two doses per auxin were tested, with as many as 12 well-infected test plants and 2 of each of the negative controls per dose.
The six auxin solutions were prepared by dissolving solid compound in General Purpose Solvent (GPS: 97%DMSO: 3% acetone) to achieve the following spray rates (g ae/ha) when using the spray applicator and parameters outlined in Example 9: Compound #1) 200; 2) 42; 3) 64; 4) 200; 5) 10; 6) 10. From each of these solutions, a portion was diluted with an equal volume of GPS, resulting in 1× (“high dose”) and ½× (“low dose”) concentrations for spraying. Before spray application, each auxin solution was mixed with an equal volume of diluent containing surfactants for effective penetration. The diluent was prepared as follows: 420 mL GPS, 460 mL DI water, 120 mL isopropyl alcohol, 10.167 mL Agri-Dex (Helena Chemical Co., Memphis, Tenn.), and 0.167 mL Triton X-155 (Sigma Chemical Co., St. Louis, Mo.). In addition to the 200 and 100 g ae/ha rates tested for Compound #4 (benazolin), a concentration of 250 g ae/ha was also formulated as described above and tested.
Plants were sprayed and evaluated as described in Example 9. FIG. 7 summarizes the sequences tested and the highest dose of the compounds against which tolerance was observed. […] Results are reported in FIG. 7 for each of the trials with each construct.
The positive control (Compound #6) was formulated differently in this set of evaluations from that described in Example 9, for consistency in the solvent/surfactant background from which to compare the activity of the individual sequences against each auxin. Thus, the spray rate used for evaluation was lower than previous experiments, 5 vs. 13 g ae/ha. The need to lower the dose with this formulation to prevent total chlorosis and/or necrosis was likely due to the addition of DMSO, Agri-Dex, and Triton X-155 which were not used in Example 9.

Molecule | plants demonstrating auxin tolerance ([1]; 14 days after treatment (dat), 130213 homolog trial, tolerance = 25% injury or less after 13 or 40 g ae/ha 4-amino-3,6-dichloropyridine-2-carboxylic acid) | reproducibility of auxin tolerance from Trial #1 to Trial #2 [1] | tolerance to picloram (Compound #5) [2] | tolerance to positive control 4-amino-3,6-dichloropyridine-2-carboxylic acid (Compound #6) [2] | tolerance to dicamba (Compound #3) [2] | tolerance to quinclorac (Compound #1) [2] | extent of cross-resistance to the six auxin compounds [2]
B1 | 17% | reproducible auxin tolerance | additional tolerance to picloram and quinclorac when the 35% injury tolerance criterion was used | tolerance consistently occurred at the lower threshold (25% injury or less) | strongly effective | additional tolerance to picloram and quinclorac when the 35% injury tolerance criterion was used | tolerance was observed against four compounds
B2 | – | reproducible auxin tolerance | clear resistance to dicamba and picloram when the 35% rating was considered | tolerance consistently occurred at the lower threshold (25% injury or less) | clear resistance to dicamba and picloram when the 35% rating was considered | consistently tolerant to quinclorac exposure at the 25% injury threshold | tolerance was observed against four compounds
